This note sets out measurements from patent US20210260070A1, “LYSIN CF-301 RESENSITIZES METHICILLIN-RESISTANT STAPHYLOCOCCUS AUREUA (MRSA) TO PENICILLIN DERIVATIVES AND FIRST GENERATION CEPHALOSPORINS” (priority 2018, published 2021).

This assay concerns MRSA. The assay can be described thus: Standard rabbit model of MRSA infective endocarditis (IE), CFU in valvular vegetations. It counts as in vivo, Staphylococcus aureus. Here is the method: An ex vivo analysis was performed on tissue samples recovered after PlySs2 treatment in a standard rabbit model of MRSA infective endocarditis (IE), as disclosed in Xiong et al., Comparative efficacy of telavancin and daptomycin in experimental endocarditis due to multi-clonotype MRSA strains, J. ANTIMIC. CHEMO. (2016); 71(1):2890-94. The standard rabbit IE model was used to confirm the impact of PlySs2 treatment on oxacillin MICs. Four days after treatment with a single-dose of PlySs2 (0.18 mg/kg to 1.4 mg/kg) in the IE model, isolates were recovered from valvular vegetations and plated on TSAB (non-selective condition, Tables 3 and 4) and TSAB supplemented with PlySs2 over a range of concentrations (selective conditions, Tables 5 and 6). MIC values of the MRSA isolates were determined for both PlySs2 and oxacillin. Tables 3 and 4 below show the MICs calculated for PlySs2 and oxacillin, respectively, for valvular vegetations subject to the non-selective conditions.

B1: PlySs2: bacteriophage lysin derived from Streptococcus suis, amino acid sequence SEQ ID NO: 1 (245 residues) (protein, listed as Streptococcus suis)
chain: MTTVNEALNNVRAQVGSGVSVGNGECYALASWYERMISPDATVGLGAGVGWVSGAIGDTISAKNIGSSYNWQANGWTVSTSGPFKAGQIVTLGATPGNPYGHVVIVEAVDGDRLTILEQNYGGKRYPVRNYYSAASYRQQVVHYITPPGTVAQSAPNLAGSRSYRETGTMTVTVDALNVRRAPNTSGEIVAVYKRGESFDYDTVIIDVNGYVWVSYIGGSGKRNYVATGATKDGKRFGNAWGTFK
As to B1, the “Log10 CFU/g of Vegetation” value (PlySs2 0.18 mg/kg, TSAB supplemented with PlySs2, 128 (unit not given)) was found to be 4.6 ± 0.7 Log10 CFU/g; the “Log10 CFU/g of Vegetation” value (PlySs2 0.18 mg/kg, TSAB supplemented with PlySs2, column 16 (unit not printed)) stood at 7.1 ± 0.1 Log10 CFU/g; the “Log10 CFU/g of Vegetation” value (PlySs2 0.18 mg/kg, TSAB supplemented with PlySs2, column 32 (unit not printed)) came out at 7.1 ± 0.1 Log10 CFU/g; the “Log10 CFU/g of Vegetation” value (PlySs2 0.18 mg/kg, TSAB supplemented with PlySs2, column 64 (unit not given)) came out at 6.6 ± 0.9 Log10 CFU/g; the “Log10 CFU/g of Vegetation” value (PlySs2 0.35 mg/kg, TSAB supplemented with PlySs2, 128 (unit not given)) was found to be 3.4 ± 1.3 Log10 CFU/g; the “Log10 CFU/g of Vegetation” value (PlySs2 0.35 mg/kg, TSAB supplemented with PlySs2, column 16 (unit not printed)) is 6.9 ± 0.2 Log10 CFU/g. Also, the “Log10 CFU/g of Vegetation” value (PlySs2 0.35 mg/kg, TSAB supplemented with PlySs2, column 32 (unit not printed)) worked out at 6.4 ± 0.5 Log10 CFU/g; the “Log10 CFU/g of Vegetation” value (PlySs2 0.35 mg/kg, TSAB supplemented with PlySs2, column 64 (unit not given)) stood at 5.5 ± 0.6 Log10 CFU/g; the “Log10 CFU/g of Vegetation” value (PlySs2 0.7 mg/kg, TSAB supplemented with PlySs2, 128 (unit not given)) is listed as below 2.1 ± 0.1 Log10 CFU/g; the “Log10 CFU/g of Vegetation” value (PlySs2 0.7 mg/kg, TSAB supplemented with PlySs2, column 16 (unit not printed)) came to 6.7 ± 0.1 Log10 CFU/g; the “Log10 CFU/g of Vegetation” value (PlySs2 0.7 mg/kg, TSAB supplemented with PlySs2, column 32 (unit not printed)) is on record as 5.7 ± 1.1 Log10 CFU/g; the “Log10 CFU/g of Vegetation” value (PlySs2 0.7 mg/kg, TSAB supplemented with PlySs2, column 64 (unit not given)) was found to be 3.8 ± 1.8 Log10 CFU/g. For the same molecule, the “Log10 CFU/g of Vegetation” value stood at 2.8 ± 1.2 Log10 CFU/g (PlySs2 1.4 mg/kg, TSAB supplemented with PlySs2, 128 (unit not given)); 7.1 ± 0.06 Log10 CFU/g (PlySs2 1.4 mg/kg, TSAB supplemented with PlySs2, column 16 (unit not printed)); 5.9 ± 0.03 Log10 CFU/g (PlySs2 1.4 mg/kg, TSAB supplemented with PlySs2, column 32 (unit not printed)); 4.2 ± 1.7 Log10 CFU/g (PlySs2 1.4 mg/kg, TSAB supplemented with PlySs2, column 64 (unit not given)); 8.65 ± 0.58 Log10 CFU/g (single dose PlySs2 0.18 mg/kg, four days after treatment, TSAB non-selective (0)); 8.17 ± 0.58 Log10 CFU/g (single dose PlySs2 0.35 mg/kg, four days after treatment, TSAB non-selective (0)). For the same molecule, the “Log10 CFU/g of Vegetation” value is, setting by setting: (single dose PlySs2 0.7 mg/kg, four days after treatment, TSAB non-selective (0)) 7.93 ± 0.12 Log10 CFU/g; (single dose PlySs2 1.4 mg/kg, four days after treatment, TSAB non-selective (0)) 8.24 ± 0.02 Log10 CFU/g.
